The text below walks through data of article PMC10786891, “Massively parallel profiling of RNA-targeting CRISPR-Cas13d”.

T1: EsCas13d, nuclease-dead (Eubacterium siraeum, UniProt B0MS50, R295A;H300A;R849A;H854A)
T1 sequence: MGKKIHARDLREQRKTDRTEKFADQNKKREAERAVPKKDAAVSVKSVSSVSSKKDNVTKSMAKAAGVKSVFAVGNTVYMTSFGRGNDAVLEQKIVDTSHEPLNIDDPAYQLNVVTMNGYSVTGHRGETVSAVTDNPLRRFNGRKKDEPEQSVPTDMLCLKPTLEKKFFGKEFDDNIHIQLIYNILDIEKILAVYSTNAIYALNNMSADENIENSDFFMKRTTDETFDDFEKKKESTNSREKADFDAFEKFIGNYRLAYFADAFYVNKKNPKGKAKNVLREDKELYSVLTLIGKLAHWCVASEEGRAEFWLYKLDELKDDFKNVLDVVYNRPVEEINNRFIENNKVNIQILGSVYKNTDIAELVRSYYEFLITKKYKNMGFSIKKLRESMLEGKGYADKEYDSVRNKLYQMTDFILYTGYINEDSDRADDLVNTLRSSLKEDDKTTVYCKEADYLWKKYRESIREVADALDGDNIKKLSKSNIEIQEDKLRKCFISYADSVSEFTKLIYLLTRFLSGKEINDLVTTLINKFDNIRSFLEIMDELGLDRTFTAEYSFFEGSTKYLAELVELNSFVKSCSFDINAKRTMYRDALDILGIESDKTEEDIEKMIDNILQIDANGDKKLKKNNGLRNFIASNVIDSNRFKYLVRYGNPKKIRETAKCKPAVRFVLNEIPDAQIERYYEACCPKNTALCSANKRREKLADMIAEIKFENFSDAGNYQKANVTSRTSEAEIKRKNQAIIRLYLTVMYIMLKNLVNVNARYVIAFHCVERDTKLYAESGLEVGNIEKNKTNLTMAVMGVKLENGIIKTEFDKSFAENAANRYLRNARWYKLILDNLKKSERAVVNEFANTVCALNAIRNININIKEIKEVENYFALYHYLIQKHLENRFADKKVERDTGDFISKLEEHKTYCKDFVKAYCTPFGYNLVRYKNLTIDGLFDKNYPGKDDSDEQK

B1: target 1 insG 3' of 14,insC 3' of 3 (mixed)
RNA 1: CACCCGUGCAAAAAUGCAGGGGUCUAAAACUGAGCGGAUAACCUCUCUAUGG
RNA 2: GGGAAUGGAUCCACAUCUACGAAUUCGUACCAUAGAGAGGGUUAUCCGCUCCACCGAGAUCGGAAGAGCACACGU
B2: target 1 complement block 6-8 (mixed)
RNA 1: CACCCGUGCAAAAAUGCAGGGGUCUAAAACUGAGCGGAUAACCUCUCUAUGG
RNA 2: GGGAAUGGAUCCACAUCUACGAAUUCGUACCAUAGAGAGGUUAAGGGCUCACCGAGAUCGGAAGAGCACACGU
B3: target 1 U10C,A14G (mixed)
RNA 1: CACCCGUGCAAAAAUGCAGGGGUCUAAAACUGAGCGGAUAACCUCUCUAUGG
RNA 2: GGGAAUGGAUCCACAUCUACGAAUUCGUACCAUAGAGGGGUCAUCCGCUCACCGAGAUCGGAAGAGCACACGU
B4: target 2 MT 5'PFS GAA 3'PFS CUG (mixed)
RNA 1: CACCCGUGCAAAAUUGCAGGGGUCUAAAACCUUCUCCAAAUUGUUUCAUCCU
RNA 2: GGGAAUGGAUCCACAUCUACGAAUUCGAAAGGAUGAAACAAUUUGGAGAAGCUGAGAUCGGAAGAGCACACGU
B5: target 2 MT 5'PFS AUU 3'PFS UAC (mixed)
RNA 1: CACCCGUGCAAAAUUGCAGGGGUCUAAAACCUUCUCCAAAUUGUUUCAUCCU
RNA 2: GGGAAUGGAUCCACAUCUACGAAUUCAUUAGGAUGAAACAAUUUGGAGAAGUACAGAUCGGAAGAGCACACGU
B6: target 2 MT 5'PFS CUG 3'PFS CUC (mixed)
RNA 1: CACCCGUGCAAAAUUGCAGGGGUCUAAAACCUUCUCCAAAUUGUUUCAUCCU
RNA 2: GGGAAUGGAUCCACAUCUACGAAUUCCUGAGGAUGAAACAAUUUGGAGAAGCUCAGAUCGGAAGAGCACACGU
B7: target 2 MT 5'PFS CUG 3'PFS CUG (mixed)
RNA 1: CACCCGUGCAAAAUUGCAGGGGUCUAAAACCUUCUCCAAAUUGUUUCAUCCU
RNA 2: GGGAAUGGAUCCACAUCUACGAAUUCCUGAGGAUGAAACAAUUUGGAGAAGCUGAGAUCGGAAGAGCACACGU
B8: target 2 MT 5'PFS GAA 3'PFS CUU (mixed)
RNA 1: CACCCGUGCAAAAUUGCAGGGGUCUAAAACCUUCUCCAAAUUGUUUCAUCCU
RNA 2: GGGAAUGGAUCCACAUCUACGAAUUCGAAAGGAUGAAACAAUUUGGAGAAGCUUAGAUCGGAAGAGCACACGU
B9: target 2 MT 5'PFS UGU 3'PFS CUA (mixed)
RNA 1: CACCCGUGCAAAAUUGCAGGGGUCUAAAACCUUCUCCAAAUUGUUUCAUCCU
RNA 2: GGGAAUGGAUCCACAUCUACGAAUUCUGUAGGAUGAAACAAUUUGGAGAAGCUAAGAUCGGAAGAGCACACGU
B10: target 2 MT 5'PFS UCA 3'PFS CAA (mixed)
RNA 1: CACCCGUGCAAAAUUGCAGGGGUCUAAAACCUUCUCCAAAUUGUUUCAUCCU
RNA 2: GGGAAUGGAUCCACAUCUACGAAUUCUCAAGGAUGAAACAAUUUGGAGAAGCAAAGAUCGGAAGAGCACACGU
B11: target 2 MT 5'PFS GAA 3'PFS CUC (mixed)
RNA 1: CACCCGUGCAAAAUUGCAGGGGUCUAAAACCUUCUCCAAAUUGUUUCAUCCU
RNA 2: GGGAAUGGAUCCACAUCUACGAAUUCGAAAGGAUGAAACAAUUUGGAGAAGCUCAGAUCGGAAGAGCACACGU
B12: target 2 MT 5'PFS ACC 3'PFS CAU (mixed)
RNA 1: CACCCGUGCAAAAUUGCAGGGGUCUAAAACCUUCUCCAAAUUGUUUCAUCCU
RNA 2: GGGAAUGGAUCCACAUCUACGAAUUCACCAGGAUGAAACAAUUUGGAGAAGCAUAGAUCGGAAGAGCACACGU
B13: target 2 MT 5'PFS UCA 3'PFS ACC (mixed)
RNA 1: CACCCGUGCAAAAUUGCAGGGGUCUAAAACCUUCUCCAAAUUGUUUCAUCCU
RNA 2: GGGAAUGGAUCCACAUCUACGAAUUCUCAAGGAUGAAACAAUUUGGAGAAGACCAGAUCGGAAGAGCACACGU
B14: target 2 MT 5'PFS CUG 3'PFS CUA (mixed)
RNA 1: CACCCGUGCAAAAUUGCAGGGGUCUAAAACCUUCUCCAAAUUGUUUCAUCCU
RNA 2: GGGAAUGGAUCCACAUCUACGAAUUCCUGAGGAUGAAACAAUUUGGAGAAGCUAAGAUCGGAAGAGCACACGU
B15: target 2 MT 5'PFS UGU 3'PFS CUC (mixed)
RNA 1: CACCCGUGCAAAAUUGCAGGGGUCUAAAACCUUCUCCAAAUUGUUUCAUCCU
RNA 2: GGGAAUGGAUCCACAUCUACGAAUUCUGUAGGAUGAAACAAUUUGGAGAAGCUCAGAUCGGAAGAGCACACGU
B16: target 2 MT 5'PFS AAC 3'PFS UUU (mixed)
RNA 1: CACCCGUGCAAAAUUGCAGGGGUCUAAAACCUUCUCCAAAUUGUUUCAUCCU
RNA 2: GGGAAUGGAUCCACAUCUACGAAUUCAACAGGAUGAAACAAUUUGGAGAAGUUUAGAUCGGAAGAGCACACGU
B17: target 2 MT 5'PFS UGU 3'PFS CUU (mixed)
RNA 1: CACCCGUGCAAAAUUGCAGGGGUCUAAAACCUUCUCCAAAUUGUUUCAUCCU
RNA 2: GGGAAUGGAUCCACAUCUACGAAUUCUGUAGGAUGAAACAAUUUGGAGAAGCUUAGAUCGGAAGAGCACACGU
B18: target 2 MT 5'PFS CUG 3'PFS CUU (mixed)
RNA 1: CACCCGUGCAAAAUUGCAGGGGUCUAAAACCUUCUCCAAAUUGUUUCAUCCU
RNA 2: GGGAAUGGAUCCACAUCUACGAAUUCCUGAGGAUGAAACAAUUUGGAGAAGCUUAGAUCGGAAGAGCACACGU
B19: target 2 MT 5'PFS GCG 3'PFS AUU (mixed)
RNA 1: CACCCGUGCAAAAUUGCAGGGGUCUAAAACCUUCUCCAAAUUGUUUCAUCCU
RNA 2: GGGAAUGGAUCCACAUCUACGAAUUCGCGAGGAUGAAACAAUUUGGAGAAGAUUAGAUCGGAAGAGCACACGU
B20: target 2 MT 5'PFS UCA 3'PFS ACA (mixed)
RNA 1: CACCCGUGCAAAAUUGCAGGGGUCUAAAACCUUCUCCAAAUUGUUUCAUCCU
RNA 2: GGGAAUGGAUCCACAUCUACGAAUUCUCAAGGAUGAAACAAUUUGGAGAAGACAAGAUCGGAAGAGCACACGU
B21: target 2 MT 5'PFS UCA 3'PFS ACG (mixed)
RNA 1: CACCCGUGCAAAAUUGCAGGGGUCUAAAACCUUCUCCAAAUUGUUUCAUCCU
RNA 2: GGGAAUGGAUCCACAUCUACGAAUUCUCAAGGAUGAAACAAUUUGGAGAAGACGAGAUCGGAAGAGCACACGU
B22: target 2 MT 5'PFS UCU 3'PFS UUG (mixed)
RNA 1: CACCCGUGCAAAAUUGCAGGGGUCUAAAACCUUCUCCAAAUUGUUUCAUCCU
RNA 2: GGGAAUGGAUCCACAUCUACGAAUUCUCUAGGAUGAAACAAUUUGGAGAAGUUGAGAUCGGAAGAGCACACGU
B23: target 2 MT 5'PFS GCA 3'PFS UCA (mixed)
RNA 1: CACCCGUGCAAAAUUGCAGGGGUCUAAAACCUUCUCCAAAUUGUUUCAUCCU
RNA 2: GGGAAUGGAUCCACAUCUACGAAUUCGCAAGGAUGAAACAAUUUGGAGAAGUCAAGAUCGGAAGAGCACACGU
B24: target 2 MT 5'PFS UAG 3'PFS CAA (mixed)
RNA 1: CACCCGUGCAAAAUUGCAGGGGUCUAAAACCUUCUCCAAAUUGUUUCAUCCU
RNA 2: GGGAAUGGAUCCACAUCUACGAAUUCUAGAGGAUGAAACAAUUUGGAGAAGCAAAGAUCGGAAGAGCACACGU
B25: target 2 MT 5'PFS UCA 3'PFS CAG (mixed)
RNA 1: CACCCGUGCAAAAUUGCAGGGGUCUAAAACCUUCUCCAAAUUGUUUCAUCCU
RNA 2: GGGAAUGGAUCCACAUCUACGAAUUCUCAAGGAUGAAACAAUUUGGAGAAGCAGAGAUCGGAAGAGCACACGU
B26: target 2 MT 5'PFS GAA 3'PFS CUA (mixed)
RNA 1: CACCCGUGCAAAAUUGCAGGGGUCUAAAACCUUCUCCAAAUUGUUUCAUCCU
RNA 2: GGGAAUGGAUCCACAUCUACGAAUUCGAAAGGAUGAAACAAUUUGGAGAAGCUAAGAUCGGAAGAGCACACGU
B27: target 2 MT 5'PFS UCA 3'PFS ACU (mixed)
RNA 1: CACCCGUGCAAAAUUGCAGGGGUCUAAAACCUUCUCCAAAUUGUUUCAUCCU
RNA 2: GGGAAUGGAUCCACAUCUACGAAUUCUCAAGGAUGAAACAAUUUGGAGAAGACUAGAUCGGAAGAGCACACGU

Broadly, the Kd is the equilibrium constant for the complex coming apart. A lower Kd goes with tighter binding.

The data set deals with T1, EsCas13d, nuclease-dead. Put plainly: crRNA (strand 1, pre-loaded); Mg2+; 40 mM Tris-HCl pH 7.5, 150 mM NaCl, 6 mM MgCl2, 1 mM DTT, 0.1% Tween-20, 0.2 mg/ml BSA; 25 C; 10 min per concentration, then washed. The settings on record: tags: His6-TwinStrep-SUMO cleaved; N-terminal SNAP kept (SNAP-Surface 488); label: 3' end held by stalled T7 RNA polymerase.
B1 had a Kd of 10.5 ± 0.9 nM. For B2 the value was 8.69 ± 0.24 nM. On to B3, for which binding was put at a Kd of 34.1 ± 2.8 nM.

B4 came in with a dissociation constant (Kd) of 11.2 ± 1.4 nM. Molecule B5 returned a dissociation constant (Kd) of 11.9 ± 2.2 nM. To B6 belongs 5.7 ± 0.6 nM. To B7 belongs 2.67 ± 0.23 nM; to B8, 15.1 ± 2.7 nM; to B9, 12.9 ± 2 nM. As for B10, the Kd is 5.3 ± 1.2 nM. For B11, the Kd amounted to 16 ± 4 nM. For B12, the Kd is 10 ± 4 nM. To B13 belongs 13.6 ± 3.1 nM. Regarding B14, binding was put at a Kd of 3.2 ± 0.4 nM. With B15, the Kd is approximately 50 nM. For B16 the value was 7.1 ± 1.3 nM; for B17, 14.6 ± 2 nM; for B18, 3.55 ± 0.34 nM. In the case of B19, the Kd is 12.6 ± 2 nM.

B20 returned a Kd of 3.6 ± 0.5 nM. To B21 belongs 3.6 ± 0.6 nM; to B22, 16.9 ± 2.8 nM; to B23, 10.9 ± 2.1 nM. In turn, B24 showed a dissociation constant Kd of 1.92 ± 0.26 nM.

Regarding B25, binding was characterised by a dissociation constant (Kd) of 3.1 ± 0.4 nM. Molecule B26 gave a dissociation constant Kd of 6.9 ± 1.1 nM.

The molecule B27 registered a Kd of 7 ± 1.4 nM.
